Results published in article PMC4615246 (Nucleus, 2015).

Experiments:
LacI-CFP-Nup153 = molecular target: T1, LacI-CFP-Nup153 (human, UniProt P49790 1-1475); experiment: LacI/LacO array recruitment in cells
T1 sequence: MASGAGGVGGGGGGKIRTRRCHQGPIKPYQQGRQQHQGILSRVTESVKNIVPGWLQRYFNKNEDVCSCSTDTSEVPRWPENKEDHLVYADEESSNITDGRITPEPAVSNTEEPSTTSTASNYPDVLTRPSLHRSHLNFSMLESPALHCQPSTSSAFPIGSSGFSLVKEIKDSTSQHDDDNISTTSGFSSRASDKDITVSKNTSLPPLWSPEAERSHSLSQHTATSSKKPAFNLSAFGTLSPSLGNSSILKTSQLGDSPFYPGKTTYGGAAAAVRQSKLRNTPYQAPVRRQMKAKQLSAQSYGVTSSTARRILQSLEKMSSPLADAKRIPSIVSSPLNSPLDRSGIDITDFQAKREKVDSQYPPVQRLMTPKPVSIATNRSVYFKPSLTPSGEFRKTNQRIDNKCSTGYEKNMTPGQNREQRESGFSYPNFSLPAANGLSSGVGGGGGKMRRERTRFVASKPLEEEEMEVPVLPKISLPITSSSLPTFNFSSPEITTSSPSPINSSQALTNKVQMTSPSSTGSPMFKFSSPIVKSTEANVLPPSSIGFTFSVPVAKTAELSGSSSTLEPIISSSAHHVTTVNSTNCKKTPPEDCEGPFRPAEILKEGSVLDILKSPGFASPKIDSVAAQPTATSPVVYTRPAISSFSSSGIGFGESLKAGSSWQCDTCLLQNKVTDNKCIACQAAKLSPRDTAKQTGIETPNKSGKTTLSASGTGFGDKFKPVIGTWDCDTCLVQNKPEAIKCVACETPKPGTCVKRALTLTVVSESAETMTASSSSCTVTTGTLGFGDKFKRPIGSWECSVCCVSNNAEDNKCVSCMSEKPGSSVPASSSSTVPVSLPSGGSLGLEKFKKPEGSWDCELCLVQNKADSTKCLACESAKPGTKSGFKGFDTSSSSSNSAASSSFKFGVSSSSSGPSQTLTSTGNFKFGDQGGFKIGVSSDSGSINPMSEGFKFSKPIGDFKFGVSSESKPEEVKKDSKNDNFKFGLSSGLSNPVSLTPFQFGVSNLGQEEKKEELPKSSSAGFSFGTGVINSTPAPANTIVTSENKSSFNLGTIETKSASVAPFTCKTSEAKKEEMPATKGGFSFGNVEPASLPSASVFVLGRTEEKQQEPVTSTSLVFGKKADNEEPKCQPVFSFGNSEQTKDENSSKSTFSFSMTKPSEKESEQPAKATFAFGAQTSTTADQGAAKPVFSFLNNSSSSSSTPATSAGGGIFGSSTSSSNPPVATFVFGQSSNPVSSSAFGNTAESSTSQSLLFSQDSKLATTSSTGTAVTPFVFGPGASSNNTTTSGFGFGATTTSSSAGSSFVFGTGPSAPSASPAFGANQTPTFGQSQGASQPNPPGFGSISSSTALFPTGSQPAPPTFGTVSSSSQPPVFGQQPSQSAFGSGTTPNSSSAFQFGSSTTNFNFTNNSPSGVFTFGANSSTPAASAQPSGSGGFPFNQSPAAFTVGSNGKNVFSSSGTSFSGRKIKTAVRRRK

LacI-CFP-Nup155 = molecular target: T2, LacI-CFP-Nup155 (human, UniProt O75694 1-1391); experiment: LacI/LacO array recruitment in cells
T2 sequence: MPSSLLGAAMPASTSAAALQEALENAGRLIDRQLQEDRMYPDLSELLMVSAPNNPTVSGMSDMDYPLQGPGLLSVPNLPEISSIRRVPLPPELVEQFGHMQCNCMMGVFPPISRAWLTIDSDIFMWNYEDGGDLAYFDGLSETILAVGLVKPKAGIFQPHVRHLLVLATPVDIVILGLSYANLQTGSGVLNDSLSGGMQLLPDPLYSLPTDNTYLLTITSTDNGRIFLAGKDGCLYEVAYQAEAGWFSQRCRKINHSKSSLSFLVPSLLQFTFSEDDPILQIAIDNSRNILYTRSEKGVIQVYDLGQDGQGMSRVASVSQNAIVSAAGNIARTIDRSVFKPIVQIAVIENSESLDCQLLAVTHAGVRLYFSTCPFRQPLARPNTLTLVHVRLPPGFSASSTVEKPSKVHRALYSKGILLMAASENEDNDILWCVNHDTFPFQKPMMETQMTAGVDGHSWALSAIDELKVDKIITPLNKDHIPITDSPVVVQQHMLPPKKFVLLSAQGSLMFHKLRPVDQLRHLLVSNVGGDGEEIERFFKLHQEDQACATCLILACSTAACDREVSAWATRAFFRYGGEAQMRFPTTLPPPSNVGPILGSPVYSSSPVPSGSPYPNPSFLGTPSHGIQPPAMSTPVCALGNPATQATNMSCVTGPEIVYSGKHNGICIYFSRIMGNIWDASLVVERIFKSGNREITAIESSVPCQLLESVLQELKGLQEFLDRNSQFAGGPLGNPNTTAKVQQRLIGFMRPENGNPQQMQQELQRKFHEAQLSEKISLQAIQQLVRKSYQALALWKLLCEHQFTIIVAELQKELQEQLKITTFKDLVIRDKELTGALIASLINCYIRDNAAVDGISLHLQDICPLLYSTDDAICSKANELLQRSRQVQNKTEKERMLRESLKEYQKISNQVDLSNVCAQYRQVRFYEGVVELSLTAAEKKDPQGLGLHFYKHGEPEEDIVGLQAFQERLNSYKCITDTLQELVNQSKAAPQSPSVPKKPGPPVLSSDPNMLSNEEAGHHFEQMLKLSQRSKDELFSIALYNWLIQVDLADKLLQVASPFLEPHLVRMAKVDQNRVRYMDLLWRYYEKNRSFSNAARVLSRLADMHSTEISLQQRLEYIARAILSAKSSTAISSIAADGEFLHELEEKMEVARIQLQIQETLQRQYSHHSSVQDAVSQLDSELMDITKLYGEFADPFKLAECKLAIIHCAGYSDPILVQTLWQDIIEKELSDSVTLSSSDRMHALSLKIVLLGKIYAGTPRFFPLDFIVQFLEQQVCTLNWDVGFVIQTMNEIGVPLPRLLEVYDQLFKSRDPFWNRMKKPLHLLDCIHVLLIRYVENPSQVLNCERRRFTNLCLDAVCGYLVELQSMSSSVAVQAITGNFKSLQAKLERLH

B1: Nup53 (endogenous) (natural protein)
chain: MAAFAVEPQGPALGSEPMMLGSPTSPKPGVNAQFLPGFLMGDLPAPVTPQPRSISGPSVGVMEMRSPLLAGGSPPQPVVPAHKDKSGAPPVRSIYDDISSPGLGSTPLTSRRQPNISVMQSPLVGVTSTPGTGQSMFSPASIGQPRKTTLSPAQLDPFYTQGDSLTSEDHLDDSWVTVFGFPQASASYILLQFAQYGNILKHVMSNTGNWMHIRYQSKLQARKALSKDGRIFGESIMIGVKPCIDKSVMESSDRCALSSPSLAFTPPIKTLGTPTQPGSTPRISTMRPLATAYKASTSDYQVISDRQTPKKDESLVSKAMEYMFGW
percent of transfected cells showing colocalization (LacI-CFP-Nup153): 14% | percent of transfected cells showing colocalization (LacI-CFP-Nup155): 46%
